# The Human Domainome abundance scans (Beltran et al. 2025)
# ± gives the uncertainty stated by the source.
# B1: Segment polarity protein dishevelled homolog DVL-3, residues 2 to 81; numbered along this chain, Q92997 (parent)
# chain: GETKIIYHLDGQETPYLVKLPLPAERVTLADFKGVLQRPSYKFFFKSMDDDFGVVKEEISDDNAKLPCFNGRVVSWLVSA
# Variants of: B1
# Test: abundance fitness (aPCA) (normalised: wild type 0, dead -1); higher = more abundant; growth selection in yeast, the domain comes from the species named
# Conditions: Homo sapiens
row,Variant,abundance fitness
1,GETKIIYHCDGQETPYLVKLPLPAERVTLADFKGVLQRPSYKFFFKSMDDDFGVVKEEISDDNAKLPCFNGRVVSWLVSA,-0.528 ± 0.12
2,GETKIIYHDDGQETPYLVKLPLPAERVTLADFKGVLQRPSYKFFFKSMDDDFGVVKEEISDDNAKLPCFNGRVVSWLVSA,-0.535 ± 0.13
3,GETKIIYHEDGQETPYLVKLPLPAERVTLADFKGVLQRPSYKFFFKSMDDDFGVVKEEISDDNAKLPCFNGRVVSWLVSA,-0.546 ± 0.092
4,GETKIIYHNDGQETPYLVKLPLPAERVTLADFKGVLQRPSYKFFFKSMDDDFGVVKEEISDDNAKLPCFNGRVVSWLVSA,-0.888 ± 0.23
5,GETKIIYHIDGQETPYLVKLPLPAERVTLADFKGVLQRPSYKFFFKSMDDDFGVVKEEISDDNAKLPCFNGRVVSWLVSA,0.163 ± 0.072
6,GETKIIYHGDGQETPYLVKLPLPAERVTLADFKGVLQRPSYKFFFKSMDDDFGVVKEEISDDNAKLPCFNGRVVSWLVSA,-0.622 ± 0.063
7,GETKIIYHMDGQETPYLVKLPLPAERVTLADFKGVLQRPSYKFFFKSMDDDFGVVKEEISDDNAKLPCFNGRVVSWLVSA,-0.283 ± 0.079
8,GETKIIYHADGQETPYLVKLPLPAERVTLADFKGVLQRPSYKFFFKSMDDDFGVVKEEISDDNAKLPCFNGRVVSWLVSA,-0.518 ± 0.075
9,GETKIIYHQDGQETPYLVKLPLPAERVTLADFKGVLQRPSYKFFFKSMDDDFGVVKEEISDDNAKLPCFNGRVVSWLVSA,-0.825 ± 0.13
10,GETKIIYHKDGQETPYLVKLPLPAERVTLADFKGVLQRPSYKFFFKSMDDDFGVVKEEISDDNAKLPCFNGRVVSWLVSA,-0.574 ± 0.095
11,GETKIIYHFDGQETPYLVKLPLPAERVTLADFKGVLQRPSYKFFFKSMDDDFGVVKEEISDDNAKLPCFNGRVVSWLVSA,-0.575 ± 0.14
12,GETKIIYHSDGQETPYLVKLPLPAERVTLADFKGVLQRPSYKFFFKSMDDDFGVVKEEISDDNAKLPCFNGRVVSWLVSA,-0.366 ± 0.068
13,GETKIIYHRDGQETPYLVKLPLPAERVTLADFKGVLQRPSYKFFFKSMDDDFGVVKEEISDDNAKLPCFNGRVVSWLVSA,-0.704 ± 0.068
14,GETKIIYHYDGQETPYLVKLPLPAERVTLADFKGVLQRPSYKFFFKSMDDDFGVVKEEISDDNAKLPCFNGRVVSWLVSA,-0.581 ± 0.15
15,GETKIIYHVDGQETPYLVKLPLPAERVTLADFKGVLQRPSYKFFFKSMDDDFGVVKEEISDDNAKLPCFNGRVVSWLVSA,0.167 ± 0.043
16,GETKIIYHTDGQETPYLVKLPLPAERVTLADFKGVLQRPSYKFFFKSMDDDFGVVKEEISDDNAKLPCFNGRVVSWLVSA,-0.767 ± 0.12
17,GETKIIYHPDGQETPYLVKLPLPAERVTLADFKGVLQRPSYKFFFKSMDDDFGVVKEEISDDNAKLPCFNGRVVSWLVSA,-0.695 ± 0.13

row,Variant,abundance fitness
1,GETKIIYHHDGQETPYLVKLPLPAERVTLADFKGVLQRPSYKFFFKSMDDDFGVVKEEISDDNAKLPCFNGRVVSWLVSA,-1.14 ± 0.38
2,GETKIIYNLDGQETPYLVKLPLPAERVTLADFKGVLQRPSYKFFFKSMDDDFGVVKEEISDDNAKLPCFNGRVVSWLVSA,-0.661 ± 0.17
3,GETKIIYTLDGQETPYLVKLPLPAERVTLADFKGVLQRPSYKFFFKSMDDDFGVVKEEISDDNAKLPCFNGRVVSWLVSA,-0.503 ± 0.1
4,GETKIIYGLDGQETPYLVKLPLPAERVTLADFKGVLQRPSYKFFFKSMDDDFGVVKEEISDDNAKLPCFNGRVVSWLVSA,-0.668 ± 0.081
5,GETKIIYILDGQETPYLVKLPLPAERVTLADFKGVLQRPSYKFFFKSMDDDFGVVKEEISDDNAKLPCFNGRVVSWLVSA,-0.681 ± 0.17
6,GETKIIYPLDGQETPYLVKLPLPAERVTLADFKGVLQRPSYKFFFKSMDDDFGVVKEEISDDNAKLPCFNGRVVSWLVSA,-0.225 ± 0.1
7,GETKIIYRLDGQETPYLVKLPLPAERVTLADFKGVLQRPSYKFFFKSMDDDFGVVKEEISDDNAKLPCFNGRVVSWLVSA,-0.326 ± 0.062
8,GETKIIYWLDGQETPYLVKLPLPAERVTLADFKGVLQRPSYKFFFKSMDDDFGVVKEEISDDNAKLPCFNGRVVSWLVSA,0.027 ± 0.063
9,GETKIIYSLDGQETPYLVKLPLPAERVTLADFKGVLQRPSYKFFFKSMDDDFGVVKEEISDDNAKLPCFNGRVVSWLVSA,-0.617 ± 0.095
10,GETKIIYVLDGQETPYLVKLPLPAERVTLADFKGVLQRPSYKFFFKSMDDDFGVVKEEISDDNAKLPCFNGRVVSWLVSA,-0.494 ± 0.075
11,GETKIIYYLDGQETPYLVKLPLPAERVTLADFKGVLQRPSYKFFFKSMDDDFGVVKEEISDDNAKLPCFNGRVVSWLVSA,0.19 ± 0.072
12,GETKIIYQLDGQETPYLVKLPLPAERVTLADFKGVLQRPSYKFFFKSMDDDFGVVKEEISDDNAKLPCFNGRVVSWLVSA,-0.747 ± 0.15
13,GETKIIYKLDGQETPYLVKLPLPAERVTLADFKGVLQRPSYKFFFKSMDDDFGVVKEEISDDNAKLPCFNGRVVSWLVSA,-0.548 ± 0.11
14,GETKIIYLLDGQETPYLVKLPLPAERVTLADFKGVLQRPSYKFFFKSMDDDFGVVKEEISDDNAKLPCFNGRVVSWLVSA,-0.542 ± 0.076
15,GETKIIYFLDGQETPYLVKLPLPAERVTLADFKGVLQRPSYKFFFKSMDDDFGVVKEEISDDNAKLPCFNGRVVSWLVSA,0.23 ± 0.078
16,GETKIIYMLDGQETPYLVKLPLPAERVTLADFKGVLQRPSYKFFFKSMDDDFGVVKEEISDDNAKLPCFNGRVVSWLVSA,-0.455 ± 0.11
17,GETKIIYHLHGQETPYLVKLPLPAERVTLADFKGVLQRPSYKFFFKSMDDDFGVVKEEISDDNAKLPCFNGRVVSWLVSA,-0.568 ± 0.16
